{"source": "patent US6262023A", "about": "“WD-40 derived peptides and uses thereof” (The Board of Trustees of the Leland Stanford Junior …, priority 1995, dated 2001)", "key": {"βPKC [1]": {"biological_target": "T1, βPKC (Rattus norvegicus, UniProt P68403)", "T1 sequence (P68403 whole entry)": "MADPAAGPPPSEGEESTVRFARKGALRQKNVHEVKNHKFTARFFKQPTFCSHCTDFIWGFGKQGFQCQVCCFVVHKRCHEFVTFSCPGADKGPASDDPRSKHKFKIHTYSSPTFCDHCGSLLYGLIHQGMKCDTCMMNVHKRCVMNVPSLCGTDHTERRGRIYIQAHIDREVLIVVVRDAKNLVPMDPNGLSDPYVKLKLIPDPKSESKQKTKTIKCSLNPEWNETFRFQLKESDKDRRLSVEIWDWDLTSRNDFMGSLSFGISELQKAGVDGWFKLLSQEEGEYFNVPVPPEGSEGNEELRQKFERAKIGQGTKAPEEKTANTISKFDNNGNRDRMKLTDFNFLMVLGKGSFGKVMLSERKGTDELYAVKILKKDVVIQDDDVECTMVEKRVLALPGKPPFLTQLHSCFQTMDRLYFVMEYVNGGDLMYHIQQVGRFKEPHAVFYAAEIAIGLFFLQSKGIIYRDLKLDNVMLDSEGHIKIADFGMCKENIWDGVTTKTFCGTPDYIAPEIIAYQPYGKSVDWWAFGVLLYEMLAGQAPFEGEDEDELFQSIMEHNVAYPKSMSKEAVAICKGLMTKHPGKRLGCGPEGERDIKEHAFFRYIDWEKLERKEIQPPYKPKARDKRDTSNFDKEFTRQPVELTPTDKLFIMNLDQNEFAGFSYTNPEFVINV", "test": "Sensitivity of βPKC to Arg-C endopeptidase (nicking)", "assay_type": "biochemical", "design": "All the solutions contained 5 nM rat brain PKC in peptide overlay buffer; from tissue; host or cells: rat brain", "settings": "2.5 μg/ml PS and 50 μM CaCl2; peptide 10 μM; Arg-C 5 units/ml", "excerpt": "Upon activation of PKC, a pseudosubstrate autoinhibitory sequence at the N-terminus of the molecule dissociates from the catalytic site and becomes sensitive to endopeptidase Arg-C (Orr, et al.). In the absence of PKC activators, exposure of the 80 kDa βPKC to endopeptidase Arg-C has no effect on the enzyme (see FIG. 7, lane 1). In the presence of the PKC activators PS, DG and calcium, however, exposure of βPKC to Arg-C results in a \"nicking\" of the PKC (i.e. limited proteolysis generating a 78 kDa fragment and several small fragments (see FIG. 7, lane 2)). Continued exposure to Arg-C results in the disappearance of βPKC (Orr, et al.). The present experiment tests whether peptides derived from the WD-40 region of RACK1 alter the sensitivity of βPKC to endopeptidase Arg-C.\nThe methods used to assay Arg-C sensitivity are a modification of methods described by Orr, et al. Rat brain PKC (~5 nM) was incubated at room temperature in 500 μl of 20 mM Tris-HCl buffer (pH 7.5) alone or with Arg-C (5 units/ml) in the presence or absence of the indicated peptides (final concentration 10 μM or as indicated), PS, DG, and calcium (as indicated). 50 μl aliquots were removed into 20 μl of sample buffer during the reaction as indicated (samples in all the lanes were incubated for 30 minutes, except lanes 5, and 6, which were incubated for 5 and 15 minutes, respectively). The samples were boiled for 10 minutes at 80° C. and loaded onto 8% SDS-PAGE. βPKC was detected by Western blot analysis using anti-βPKC antibodies as described in Examples 6 and 8.\nPKC was incubated for the indicated time alone (lane 1) or in the presence of Arg-C (lanes 2-9), with DG (0.8 μg/ml), PS (50 μg/ml) and CaCl2 (1 mM; lane 2), with PS (50 μg/ml) and CaCl2 (1 mM; lane 3), with PS (2.5 μg/ml) and CaCl2 (50 μM; lane 4); with PS (2.5 μg/ml), CaCl2 (50 μM) and with either peptide rVI (SEQ ID NO:7; 10 μM; lanes 5-7), control peptide (SEQ ID NO: 9; lane 8) or with peptide I (SEQ ID) NO:1; lane 9)."}, "βPKC [2]": {"biological_target": "T1, βPKC", "test": "PKC overlay of immobilized peptides (slot-blot)", "assay_type": "binding", "design": "All the solutions contained 5 nM rat brain PKC in peptide overlay buffer; from tissue; host or cells: rat brain", "settings": "DG and calcium", "procedure": "The binding of βPKC to peptide I (SEQ ID NO:1), peptide rVI (SEQ ID NO:7) and control peptide (SEQ ID NO:9) was assessed using a PKC overlay assay similar to that described in Example 3. Increasing amounts of peptides (0.5 μmole, 1.0 μmole, 5.0 μmole and 10.0 μmole) suspended in 20 mM NaCl were applied individually onto nitrocellulose using a slot-blot apparatus (Schleicher and Schuell, Keene, N.H.). The nitrocellulose membrane was washed three times, minutes per wash, in peptide overlay buffer and incubated for two hours in peptide overlay block buffer. The membrane was cut into sections and the sections were transferred to different PKC-containing solutions and incubated for 30 minutes at room temperature. All the solutions contained 5 nM rat brain PKC in peptide overlay buffer. Some solutions additionally contained PS, DG, and calcium. The membranes were then washed three times, 15 minutes per wash, in peptide overlay buffer and incubated in peptide overlay block buffer containing anti-βPKC monoclonal antibodies (1:1000 dilution; Seikagaku Kogyo, Tokyo, Japan). […]\nBinding of PKC was determined using chemiluminescence as described in Example 3, part C. Quantitation of PKC binding was carried out using a \"MICRO SCAN\" 1000 gel analyzer (Galai Inc., Yokneam, Israel)."}}, "data": [{"substance": "peptide I: 15-residue peptide homologous to a sequence in the sixth WD-40 repeat of RACK1; PKC antagonist (KGDYEKILVALCGGN)", "values": [{"measurement": "nicking of βPKC by Arg-C (78 kDa fragment) at low concentrations of activators", "setting": "βPKC [1]", "result": "nicking of βPKC did not occur"}, {"measurement": "peptide amount at which activated PKC bound to immobilized peptide (as low as)", "setting": "βPKC [2]; PKC with PS, 5 nM rat brain PKC, 0.5-10.0 μmole peptide on nitrocellulose", "result": "≤ 5", "unit": "µmol"}, {"measurement": "binding of unactivated PKC to immobilized peptide", "setting": "βPKC [2]; PKC without PS", "result": "did not bind"}]}]}
